The experiment deals with His6-BacA_(F134R), purified (Asticcacaulis biprosthecum). The experiment can be described thus: SEC; 500 µl of purified proteins from the polymerization assay on Superdex 200 Increase 10/300 GL, column calibrated with standard proteins.

Consider “His6-BacA_(F134R), purified (natural protein)”, for which the stoichiometry N turned out to be 2.

By stoichiometry N is commonly meant the number of molecules, sites or subunits per partner or assembly.

Source of the values: article PMC12364344.
